From patent US20250009854A1

Target: NL63 trimer (human coronavirus NL63)

Substance | IC50 [nM]
trACE2-Fc-WT (Fc fusion) | 100
flACE2-Fc-WT (Fc fusion) | 52.7
